Sequences and labels used below:
B1: peptide HD2 (from tick evasin EVA4) / CXCL11 (biotinylated, synthetic) (parent complex)
chain 1: EEDDYTAYAPLTCYFT
chain 2: FPMFKRGRCLCIGPGVKAVKVADIEKASIMYPSNNCDKIEVIITLKENKGQRCLNPKSKQARLIIKKVERKNF

The variants in this assay derive from B1.
Consider chain 1 T12W, for which the enrichment is 0.223 log2 (difference from the parental peptide).
chain 1 T12C: the enrichment is -5.77 log2 (difference from the parental peptide).
Under chain 1 T12L stands -0.306 log2 (difference from the parental peptide); under chain 1 T12Y, 1.35 log2 (difference from the parental peptide).
Under chain 1 T12D stands -5.79 log2 (difference from the parental peptide); under chain 1 T12N, -0.502 log2 (difference from the parental peptide); under chain 1 T12M, 0.317 log2 (difference from the parental peptide).
The result for chain 1 T12H reads -2.7 log2 (difference from the parental peptide); that for chain 1 T12P, -0.00384 log2 (difference from the parental peptide); that for chain 1 T12R, -6.22 log2 (difference from the parental peptide).
Regarding chain 1 T12S, the enrichment was -1.85 log2 (difference from the parental peptide).
In the case of chain 1 T12V, the enrichment is 1.82 log2 (difference from the parental peptide).
The result for chain 1 F15D reads -1.93 log2 (difference from the parental peptide); that for chain 1 F15V, -0.608 log2 (difference from the parental peptide); that for chain 1 F15G, -4.79 log2 (difference from the parental peptide).
The result for chain 1 F15H reads -2.86 log2 (difference from the parental peptide); that for chain 1 F15Y, 0.592 log2 (difference from the parental peptide).
The result for chain 1 F15Q reads -2.96 log2 (difference from the parental peptide); that for chain 1 F15A, -3.02 log2 (difference from the parental peptide).
Turning to chain 1 F15I, the enrichment was -3.39 log2 (difference from the parental peptide).
Under chain 1 F15E stands -6.06 log2 (difference from the parental peptide).
Under chain 1 F15P stands -3.5 log2 (difference from the parental peptide); under chain 1 F15W, -6.32 log2 (difference from the parental peptide).
For the variant chain 1 F15C, the enrichment is 0.343 log2 (difference from the parental peptide).
Under chain 1 F15K stands -4.14 log2 (difference from the parental peptide); under chain 1 D4P, 0.748 log2 (difference from the parental peptide); under chain 1 D4I, -4.93 log2 (difference from the parental peptide).
The result for chain 1 D4V reads -6.99 log2 (difference from the parental peptide).
The result for chain 1 D4Q reads -3.62 log2 (difference from the parental peptide); that for chain 1 D4F, -5.51 log2 (difference from the parental peptide); that for chain 1 D4L, -4.01 log2 (difference from the parental peptide).
chain 1 D4S: the enrichment was -5.73 log2 (difference from the parental peptide).
The result for chain 1 T6V reads -0.999 log2 (difference from the parental peptide).
The result for chain 1 T6D reads 3.67 log2 (difference from the parental peptide); that for chain 1 T6Y, 3.68 log2 (difference from the parental peptide).
The result for chain 1 T6E reads 3.52 log2 (difference from the parental peptide); that for chain 1 T6G, 4.62 log2 (difference from the parental peptide); that for chain 1 T6M, 1.9 log2 (difference from the parental peptide).
For chain 1 T6P, the enrichment was 1.34 log2 (difference from the parental peptide).
Under chain 1 T6L stands 3.05 log2 (difference from the parental peptide); under chain 1 T6Q, -2.01 log2 (difference from the parental peptide); under chain 1 T6N, 1.03 log2 (difference from the parental peptide).
Under chain 1 T6K stands 0.156 log2 (difference from the parental peptide).
For the variant chain 1 T6A, the enrichment is 1.82 log2 (difference from the parental peptide).
Under chain 1 T6F stands 4.5 log2 (difference from the parental peptide).
The result for chain 1 E2K reads -2.28 log2 (difference from the parental peptide); that for chain 1 E2V, -1.84 log2 (difference from the parental peptide); that for chain 1 E2W, 1.67 log2 (difference from the parental peptide).
Under chain 1 E2D stands 0.953 log2 (difference from the parental peptide); under chain 1 E2N, -4.96 log2 (difference from the parental peptide); under chain 1 E2L, -1.04 log2 (difference from the parental peptide).
Consider chain 1 A9F, for which the enrichment was -0.826 log2 (difference from the parental peptide).
Under chain 1 A9Y stands -4.48 log2 (difference from the parental peptide); under chain 1 A9G, -1.08 log2 (difference from the parental peptide).
Regarding chain 1 A9I, the enrichment was -4.81 log2 (difference from the parental peptide).
As to chain 1 A9L, the enrichment is -2.33 log2 (difference from the parental peptide).
Under chain 1 A9W stands 5.42 log2 (difference from the parental peptide); under chain 1 A9H, -5.35 log2 (difference from the parental peptide).
The result for chain 1 A9P reads 0.549 log2 (difference from the parental peptide); that for chain 1 A9M, -0.281 log2 (difference from the parental peptide); that for chain 1 A9N, -2.99 log2 (difference from the parental peptide).
Under chain 1 A9E stands 2.26 log2 (difference from the parental peptide).
As to chain 1 A9V, the enrichment was -2.18 log2 (difference from the parental peptide).
Under chain 1 D3I stands -2.24 log2 (difference from the parental peptide); under chain 1 D3G, -4.59 log2 (difference from the parental peptide).
The result for chain 1 D3Y reads -1.43 log2 (difference from the parental peptide).
Under chain 1 D3T stands -3.75 log2 (difference from the parental peptide); under chain 1 D3L, -0.828 log2 (difference from the parental peptide).
Turning to chain 1 D3W, the enrichment is 0.263 log2 (difference from the parental peptide).
Under chain 1 D3F stands -3.31 log2 (difference from the parental peptide).
Under chain 1 T16G stands 0.304 log2 (difference from the parental peptide); under chain 1 T16A, -0.756 log2 (difference from the parental peptide); under chain 1 T16V, -2.73 log2 (difference from the parental peptide).
Under chain 1 T16I stands 0.577 log2 (difference from the parental peptide).
Turning to chain 1 T16C, the enrichment is 2.71 log2 (difference from the parental peptide).
The result for chain 1 T16S reads 0.254 log2 (difference from the parental peptide).
The result for chain 1 T16W reads 0.43 log2 (difference from the parental peptide).
The result for chain 1 T16F reads -2.01 log2 (difference from the parental peptide); that for chain 1 Y8M, -5.63 log2 (difference from the parental peptide).
For the variant chain 1 Y8D, the enrichment is -3.68 log2 (difference from the parental peptide).
Consider chain 1 Y8T, for which the enrichment is -5.62 log2 (difference from the parental peptide).
The result for chain 1 Y8L reads -0.881 log2 (difference from the parental peptide); that for chain 1 Y8H, -4.71 log2 (difference from the parental peptide); that for chain 1 Y8A, -0.869 log2 (difference from the parental peptide).
The result for chain 1 Y8G reads -1.09 log2 (difference from the parental peptide); that for chain 1 Y8V, -0.599 log2 (difference from the parental peptide).
The result for chain 1 Y8W reads 2.23 log2 (difference from the parental peptide); that for chain 1 E1T, -1.21 log2 (difference from the parental peptide).
chain 1 E1W: the enrichment was 1.25 log2 (difference from the parental peptide).
Under chain 1 E1M stands 0.144 log2 (difference from the parental peptide); under chain 1 E1Q, 2.79 log2 (difference from the parental peptide).
Under chain 1 E1H stands -5.11 log2 (difference from the parental peptide).
The result for chain 1 E1L reads -0.107 log2 (difference from the parental peptide); that for chain 1 E1F, -0.271 log2 (difference from the parental peptide).
For chain 1 E1I, the enrichment is 0.804 log2 (difference from the parental peptide).
Under chain 1 E1V stands -6.09 log2 (difference from the parental peptide); under chain 1 E1G, -4.38 log2 (difference from the parental peptide).
Under chain 1 E1A stands 0.823 log2 (difference from the parental peptide); under chain 1 E1D, 1.33 log2 (difference from the parental peptide); under chain 1 Y5L, -4.33 log2 (difference from the parental peptide).
The result for chain 1 Y5F reads -0.5 log2 (difference from the parental peptide).
As for chain 1 Y14L, the enrichment was -3.92 log2 (difference from the parental peptide).
Under chain 1 Y14H stands -2.54 log2 (difference from the parental peptide); under chain 1 Y14A, -7.18 log2 (difference from the parental peptide).
With chain 1 Y14F, the enrichment was 0.796 log2 (difference from the parental peptide).
Turning to chain 1 Y14V, the enrichment was -5.26 log2 (difference from the parental peptide).
The result for chain 1 Y14C reads -3.13 log2 (difference from the parental peptide); that for chain 1 Y14W, -6.01 log2 (difference from the parental peptide).
The result for chain 1 Y14G reads -6.05 log2 (difference from the parental peptide).
The result for chain 1 C13Q reads -4.93 log2 (difference from the parental peptide).
As for chain 1 C13A, the enrichment was -5.18 log2 (difference from the parental peptide).
Under chain 1 C13E stands -5.07 log2 (difference from the parental peptide); under chain 1 C13P, -5.74 log2 (difference from the parental peptide); under chain 1 C13S, -1.17 log2 (difference from the parental peptide).
The result for chain 1 C13H reads -5.78 log2 (difference from the parental peptide).
The result for chain 1 C13L reads -8.45 log2 (difference from the parental peptide); that for chain 1 C13N, -3.76 log2 (difference from the parental peptide).
As for chain 1 C13M, the enrichment is -6.65 log2 (difference from the parental peptide).
With chain 1 L11M, the enrichment was 2.73 log2 (difference from the parental peptide).
The result for chain 1 L11R reads -3.19 log2 (difference from the parental peptide).
Under chain 1 L11K stands -4.12 log2 (difference from the parental peptide); under chain 1 L11P, -5.24 log2 (difference from the parental peptide).
Regarding chain 1 L11W, the enrichment is 4.79 log2 (difference from the parental peptide).
The result for chain 1 L11F reads 2.94 log2 (difference from the parental peptide).
Under chain 1 L11S stands -0.706 log2 (difference from the parental peptide); under chain 1 L11H, 0.15 log2 (difference from the parental peptide).
In the case of chain 1 L11A, the enrichment is -1.47 log2 (difference from the parental peptide).
Under chain 1 L11D stands -5.22 log2 (difference from the parental peptide).
With chain 1 A7H, the enrichment is -1.06 log2 (difference from the parental peptide).
Under chain 1 A7S stands 0.213 log2 (difference from the parental peptide); under chain 1 A7G, -3.03 log2 (difference from the parental peptide).
The result for chain 1 A7I reads 1.35 log2 (difference from the parental peptide); that for chain 1 A7K, -3.04 log2 (difference from the parental peptide).
chain 1 A7R: the enrichment was -1.89 log2 (difference from the parental peptide).
Under chain 1 A7Y stands 2.5 log2 (difference from the parental peptide).
As for chain 1 A7P, the enrichment is 0.432 log2 (difference from the parental peptide).
Under chain 1 A7T stands -0.798 log2 (difference from the parental peptide); under chain 1 A7V, 0.52 log2 (difference from the parental peptide).
Under chain 1 A7F stands 1.43 log2 (difference from the parental peptide).
The result for chain 1 P10T reads -0.0022 log2 (difference from the parental peptide).
chain 1 P10H: the enrichment is -5.09 log2 (difference from the parental peptide).
Under chain 1 P10N stands 1.47 log2 (difference from the parental peptide); under chain 1 P10G, 2.73 log2 (difference from the parental peptide); under chain 1 P10V, -5.93 log2 (difference from the parental peptide).
Under chain 1 P10L stands -1.17 log2 (difference from the parental peptide).
With chain 1 P10A, the enrichment is -0.641 log2 (difference from the parental peptide).
Under chain 1 P10S stands -1.81 log2 (difference from the parental peptide); under chain 1 P10I, -0.366 log2 (difference from the parental peptide); under chain 1 P10W, 0.743 log2 (difference from the parental peptide).
Under chain 1 P10D stands 8.22 log2 (difference from the parental peptide).

The values are drawn from PMC11969024 (2025).
